Experimental data from US20260250398A1 (ANTLERA THERAPEUTICS, published 2026).

T1: LRP6 (low-density lipoprotein receptor-related protein 6) (UniProt O75581 20-1370, limits assumed)
T1 sequence (looked up): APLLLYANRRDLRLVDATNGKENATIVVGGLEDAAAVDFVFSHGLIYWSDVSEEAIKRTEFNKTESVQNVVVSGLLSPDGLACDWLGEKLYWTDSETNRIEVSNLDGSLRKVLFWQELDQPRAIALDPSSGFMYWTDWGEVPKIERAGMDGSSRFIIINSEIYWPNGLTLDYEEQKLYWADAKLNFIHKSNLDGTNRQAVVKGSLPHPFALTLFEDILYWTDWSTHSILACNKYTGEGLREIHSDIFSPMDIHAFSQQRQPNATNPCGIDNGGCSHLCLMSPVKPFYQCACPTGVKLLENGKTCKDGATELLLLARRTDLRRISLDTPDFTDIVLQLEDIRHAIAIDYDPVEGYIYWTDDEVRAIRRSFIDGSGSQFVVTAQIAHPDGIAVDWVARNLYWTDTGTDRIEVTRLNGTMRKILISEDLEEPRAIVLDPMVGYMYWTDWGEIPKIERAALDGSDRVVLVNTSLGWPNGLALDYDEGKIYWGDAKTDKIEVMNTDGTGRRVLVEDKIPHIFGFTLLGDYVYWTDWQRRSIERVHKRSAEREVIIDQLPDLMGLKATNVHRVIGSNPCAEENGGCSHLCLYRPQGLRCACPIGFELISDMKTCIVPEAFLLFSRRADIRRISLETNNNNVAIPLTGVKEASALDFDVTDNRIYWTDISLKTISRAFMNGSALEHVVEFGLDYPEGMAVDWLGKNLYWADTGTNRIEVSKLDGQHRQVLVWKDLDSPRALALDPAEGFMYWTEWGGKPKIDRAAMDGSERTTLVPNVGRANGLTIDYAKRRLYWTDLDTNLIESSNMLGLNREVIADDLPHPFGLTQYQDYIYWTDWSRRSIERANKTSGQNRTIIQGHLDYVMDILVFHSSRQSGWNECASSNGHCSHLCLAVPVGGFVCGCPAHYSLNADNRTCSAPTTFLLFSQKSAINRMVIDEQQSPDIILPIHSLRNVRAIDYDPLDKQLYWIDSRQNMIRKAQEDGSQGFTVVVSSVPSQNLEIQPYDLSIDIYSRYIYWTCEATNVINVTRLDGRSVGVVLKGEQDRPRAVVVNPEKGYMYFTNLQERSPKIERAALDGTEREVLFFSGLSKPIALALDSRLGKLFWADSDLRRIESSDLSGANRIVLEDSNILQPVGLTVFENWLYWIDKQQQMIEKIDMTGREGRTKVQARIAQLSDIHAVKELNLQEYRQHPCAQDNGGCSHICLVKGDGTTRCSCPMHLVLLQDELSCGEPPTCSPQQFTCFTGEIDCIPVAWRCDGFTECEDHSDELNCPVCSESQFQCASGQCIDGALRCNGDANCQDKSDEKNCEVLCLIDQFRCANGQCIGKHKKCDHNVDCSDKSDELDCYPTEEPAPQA


How the values were obtained:
[1] = target: T1, LRP6 (low-density lipoprotein …); assay: cell-based or functional assay
[2] = target: T1, LRP6 (low-density lipoprotein …); assay: cell-based or functional assay; remark: listed apart in the source

| Binder | TOPFLASH Maximal Signal (% Wnt3a maxima) [1] [% Wnt3a maxima] | TOPFLASH % Wnt Maxima [2] [% Wnt Maxima] |
| --- | --- | --- |
| CH3 (Dia-CH3-Dia; paratopes 5019; 2539) (bispecific antibody) MNLLLILTFVAAAVAEFEVQLVESGGGLVQPGGSLRLSCAASGFNIGSSSIHWVRQAPGKGLEWVASIYSAFASTSYADSVKGRFTISADTSKNTAYLQMNSLRAEDTAVYYCARYHFPFGFALDYWGQGTLVTVSSGGGGSDIQMTQSPSSLSASVGDRVTITCRASQSVSSAVAWYQQKPGKAPKLLIYSASSLYSGVPSRFSGSRSGTDFTLTISSLQPEDFATYYCQQGVYLFTFGQGTKVEIKDKTHTKVEPKTSDKTHTCPPCPGQPREPQVYTLPPSREEMTKNQVSLTCLVKGFYPSDIAVEWESNGQPENNYKTTPPVLDSDGSFFLYSKLTVDKSRWQQGNVFSCSVMHEALHNHYTQKSLSLSPGKGTTAASGSSGGSSSGAGRTEVQLVESGGGLVQPGGSLRLSCAASGFNISYSSIHWVRQAPGKGLEWVAYISSYYGYTYYADSVKGRFTISADTSKNTAYLQMNSLRAEDTAVYYCARAHYFPWAGAMDYWGQGTLVTVSSGGGGSDIQMTQSPSSLSASVGDRVTITCRASQSVSSAVAWYQQKPGKAPKLLIYSASSLYSGVPSRFSGSRSGTDFTLTISSLQPEDFATYYCQQYSWGPFTFGQGTKVEIK | 22 | – |
| CM0299 (FZD IgG-LRP Diabody; paratopes 5016; 2539) (bispecific antibody) heavy: not shown light: DIQMTQSPSSLSASVGDRVTITCRASQSVSSAVAWYQQKPGKAPKLLIYSASSLYSGVPSRFSGSRSGTDFTLTISSLQPEDFATYYCQQGVYLFTFGQGTKVEIKRTVAAPSVFIFPPSDEQLKSGTASVVCLLNNFYPREAKVQWKVDNALQSGNSQESVTEQDSKDSTYSLSSTLTLSKADYEKHKVYACEVTHQGLSSPVTKSFNRGEC | – | 14 |
| CM0300 (FZD IgG-LRP scFv; paratopes 5016; 2539) (bispecific antibody) heavy: not shown light: DIQMTQSPSSLSASVGDRVTITCRASQSVSSAVAWYQQKPGKAPKLLIYSASSLYSGVPSRFSGSRSGTDFTLTISSLQPEDFATYYCQQGVYLFTFGQGTKVEIKRTVAAPSVFIFPPSDEQLKSGTASVVCLLNNFYPREAKVQWKVDNALQSGNSQESVTEQDSKDSTYSLSSTLTLSKADYEKHKVYACEVTHQGLSSPVTKSFNRGEC | – | 5 |

Now from value to binder:

| TOPFLASH Maximal Signal (% Wnt3a maxima) [1] [% Wnt3a maxima] | TOPFLASH % Wnt Maxima [2] [% Wnt Maxima] | Binder |
| --- | --- | --- |
| 42 | – | Fab-Dia (paratopes 5016; 2540/2542) (bispecific antibody) heavy: EVQLVESGGGLVQPGGSLRLSCAASGFNIHSSSIHWVRQAPGKGLEWVAATYSSFGSITYADSVKGRFTISADTSKNTAYLQMNSLRAEDTAVYYCARYHHPFGYALDYWGQGTLVTVSSASTKGPSVFPLAPSSKSTSGGTAALGCLVKDYFPEPVTVSWNSGALTSGVHTFPAVLQSSGLYSLSSVVTVPSSSLGTQTYICNVNHKPSNTKVDKKVEPKSCDKTHTGGSGGEVQLVESGGGLVQPGGSLRLSCAASGFTISYSSIHWVRQAPGKGLEWVASISPYYGYTYYADSVKGRFTISADTSKNTAYLQMNSLRAEDTAVYYCARSSYFPWFSAMDYWGQGTLVTVSSGGGGSDIQMTQSPSSLSASVGDRVTITCRASQSVSSAVAWYQQKPGKAPKLLIYSASSLYSGVPSRFSGSRSGTDFTLTISSLQPEDFATYYCQQYYWPITFGQGTKVEIK light: DIQMTQSPSSLSASVGDRVTITCRASQSVSSAVAWYQQKPGKAPKLLIYSASSLYSGVPSRFSGSRSGTDFTLTISSLQPEDFATYYCQQGVYLFTFGQGTKVEIKRTVAAPSVFIFPPSDEQLKSGTASVVCLLNNFYPREAKVQWKVDNALQSGNSQESVTEQDSKDSTYSLSSTLTLSKADYEKHKVYACEVTHQGLSSPVTKSFNRGECGGGGSEVQLVESGGGLVQPGGSLRLSCAASGFTISSYYIHWVRQAPGKGLEWVASIYSSYGYTSYADSVKGRFTISADTSKNTAYLQMNSLRAEDTAVYYCARTVRGSKKPYFSGWAMDYWGQGTLVTVSSGGGGSDIQMTQSPSSLSASVGDRVTITCRASQSVSSAVAWYQQKPGKAPKLLIYSASSLYSGVPSRFSGSRSGTDFTLTISSLQPEDFATYYCQQYYFLITFGQGTKVEIK |
| – | 1 | CM0301 (FZD IgG-LRP scFv; paratopes 5016; 2542) (bispecific antibody) heavy: not shown light: DIQMTQSPSSLSASVGDRVTITCRASQSVSSAVAWYQQKPGKAPKLLIYSASSLYSGVPSRFSGSRSGTDFTLTISSLQPEDFATYYCQQGVYLFTFGQGTKVEIKRTVAAPSVFIFPPSDEQLKSGTASVVCLLNNFYPREAKVQWKVDNALQSGNSQESVTEQDSKDSTYSLSSTLTLSKADYEKHKVYACEVTHQGLSSPVTKSFNRGEC |
| – | 42 | CT0003 (Table 5: FZD Diabody-Fc-LRP scFv; paratopes 5016; 2539, 2542) (bispecific antibody) chain 1: MNLLLILTFVAAAVAEFEVQLVESGGGLVQPGGSLRLSCAASGFNISSYYIHWVRQAPGKGLEWVASIYSSYGYTSYADSVKGRFTISADTSKNTAYLQMNSLRAEDTAVYYCARTVRGSKKPYFSGWAMDYWGQGTLVTVSSGGGGSDIQMTQSPSSLSASVGDRVTITCRASQSVSSAVAWYQQKPGKAPKLLIYSASSLYSGVPSRFSGSRSGTDFTLTISSLQPEDFATYYCQQYSWGPFTFGQGTKVEIKLEDKTHTKVEPKSSDKTHNCPPCPAPELLGGPSVFLFPPKPKDTLMISRTPEVTCVVVDVSHEDPEVKFNWYVDGVEVHNAKTKPREEQYNSTYRVVSVLTVLHQDWLNGKEYKCKVSNKALPAPIEKTISKAKGQPREPQVYTLPPIRELMTSNQVSLSCAVKGFYPSDIAVEWESNGQPENNYKTTPPVLDSDGSFFLVSKLTVDKSRWQQGNVFSCSVMHEALHNHYTQKSLSLSPGKSGSETPGTSESATPESGGGEVQLVESGGGLVQPGGSLRLSCAASGFNIHSSSIHWVRQAPGKGLEWVAATYSSFGSITYADSVKGRFTISADTSKNTAYLQMNSLRAEDTAVYYCARYHHPFGYALDYWGQGTLVTVSSGTTAASGSSGGSSSGADIQMTQSPSSLSASVGDRVTITCRASQSVSSAVAWYQQKPGKAPKLLIYSASSLYSGVPSRFSGSRSGTDFTLTISSLQPEDFATYYCQQGVYLFTFGQGTKVEIK chain 2: MNLLLILTFVAAAVAEFEVQLVESGGGLVQPGGSLRLSCAASGFNISYSSIHWVRQAPGKGLEWVAYISSYYGYTYYADSVKGRFTISADTSKNTAYLQMNSLRAEDTAVYYCARAHYFPWAGAMDYWGQGTLVTVSSGGGGDIQMTQSPSSLSASVGDRVTITCRASQSVSSAVAWYQQKPGKAPKLLIYSASSLYSGVPSRFSGSRSGTDFTLTISSLQPEDFATYYCQQYYWPITFGQGTKVEIKLEDKTHTKVEPKTSDKTHTCPPCPAPELLGGPSVFLFPPKPKDTLMISRTPEVTCVVVDVSHEDPEVKFNWYVDGVEVHNAKTKPREEQYNSTYRVVSVLTVLHQDWLNGKEYKCKVSNKALPAPIEKTISKAKGQPREPMVFDLPPSREEMTKNQVSLWCMVKGFYPSDIAVEWESNGQPENNYKTTPPVLDSDGSFFLYSKLTVDKSRWQQGNVFSCSVMHEALHNHYTQKSLSLSPGKSGSETPGTSESATPESGGGEVQLVESGGGLVQPGGSLRLSCAASGFNIHSSSIHWVRQAPGKGLEWVAATYSSFGSITYADSVKGRFTISADTSKNTAYLQMNSLRAEDTAVYYCARYHHPFGYALDYWGQGTLVTVSSGTTAASGSSGGSSSGADIQMTQSPSSLSASVGDRVTITCRASQSVSSAVAWYQQKPGKAPKLLIYSASSLYSGVPSRFSGSRSGTDFTLTISSLQPEDFATYYCQQGVYLFTFGQGTKVEIK |
